Experiments:
[1] = target: T1, CD86-mIgG (Ancell, Inc) (UniProt P42081 24-247, limits assumed); assay: SPR, CD86-mIgG immobilized; reference of the comparison
T1 construct: Bought reagent
T1 sequence (looked up): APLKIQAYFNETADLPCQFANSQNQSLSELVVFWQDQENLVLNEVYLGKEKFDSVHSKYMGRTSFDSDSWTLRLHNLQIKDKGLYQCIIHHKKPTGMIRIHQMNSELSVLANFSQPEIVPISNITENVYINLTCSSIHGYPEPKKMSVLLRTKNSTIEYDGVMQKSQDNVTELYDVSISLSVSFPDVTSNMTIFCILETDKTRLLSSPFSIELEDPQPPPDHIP

[2] = target: T2, CD86 on cells (WIL2-S human B-lymphoblastoid cells; HuCD86-2A2 CHO cells expressing CD86) (human, UniProt P42081 24-329); assay: flow cytometry on WIL2-S cells
T2 construct: whole, on cells; also called cell surface CD86
T2 sequence (looked up): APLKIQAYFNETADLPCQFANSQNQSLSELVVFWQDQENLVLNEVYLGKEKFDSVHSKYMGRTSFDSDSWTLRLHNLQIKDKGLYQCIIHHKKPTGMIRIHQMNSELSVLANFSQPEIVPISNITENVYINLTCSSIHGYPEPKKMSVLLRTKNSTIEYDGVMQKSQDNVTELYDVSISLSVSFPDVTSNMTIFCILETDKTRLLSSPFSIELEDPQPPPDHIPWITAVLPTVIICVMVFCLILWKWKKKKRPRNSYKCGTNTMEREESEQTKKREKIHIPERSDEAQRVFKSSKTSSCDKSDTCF
Experimental: (§1) Briefly, WIL2-S or HuCD86-2A2 cells were incubated with test molecules containing a CD86 antagonist at concentrations ranging from saturation to background levels. […] After the incubation, cells were washed and a fluorophore (R-phycoerythrin) tagged F(Ab′)₂ antibody specific for the Fc portion of the xceptor molecule, IL10R-Ig fusion protein, or anti-IL10 antibody. The tagged cells were then passed through a flow cytometer and data was analyzed by plotting median fluorescence intensity of each sample.

[3] = target: T2, CD86 on cells (WIL2-S human …); assay: flow cytometry, HEK293 supernatants on HuCD86-2A2 cells
Experimental: as §1
In another experiment, different versions of humanized FUN1 SMIPs were tested for CD86 binding. Supernatants of HEK293 cells transiently transfected with the six different versions of humanized FUN1 SMIPs were examined for CD86 binding using HuCD86-2A2 cells.

B1: FUN1::IL10 xceptor (Fc fusion)
chain: EVQLQQSGPELEKPGASVKISCKASGYSFTDYNMNWVKQSNGKSLEWIGNIDPYYGGTSYNQKFKGKATLTVDKSSSTAYMQLNSLTSEDSAVYFCARWDYRYDDGRAYYVMDFWGQGTSVTVSSGGGGSGGGGSGGGGSGGGGSELQMTQSPSSLAASAGEKVTMSCKSSQSVLYSSNQKNYLAWYQQKPGQSPKLLIYWASTRESGVPDRFTGSGSGTHFTLTVSSVQAEDLAVYYCHQYLYSWTFGGGTNLEIKRLEPKSSDKTHTCPPCPAPEAAGAPSVFLFPPKPKDTLMISRTPEVTCVVVDVSHEDPEVKFNWYVDGVEVHNAKTKPREEQYNSTYRVVSVLTVLHQDWLNGKAYACAVSNKALPAPIEKTISKAKGQPREPQVYTLPPSRDELTKNQVSLTCLVKGFYPSDIAVEWESNGQPENNYKTTPPVLDSDGSFFLYSKLTVDKSRWQQGNVFSCSVMHEALHNHYTQKSLSLSPGNSLFNQEVQIPLTESYSPNSSPGQGTQSENSCTHFPGNLPNMLRDLRDAFSRVKTFFQMKDQLDNLLLKESLLEDFKGYLGCQALSEMIQFYLEEVMPQAENQDPDIKAHVNSLGENLKTLRLRLRRCHRFLPCENKSKAVEQVKNAFNKLQEKGIYKAMSEFDIFINYIEAYMTMKIRN
notes: anti-CD86 FUN1 scFv - Fc - IL10
binding result [1]: binds
binding result [2]: binds

B2: FUN1-22 humanized FUN1 SMIP (Fc fusion)
chain: QVQLVQSGAEVKKPGASVKVSCKASGYTFTDYNMNWVRQAPGQGLEWMGNIDPYYGGTSYNQKFKGRVTMTRDTSISTAYMELSRLRSDDTAVYYCARWDYRYDDGRAYYVMDFWGQGTTVTVSSGGGGSGGGGSGGGGSGGGGSDIQMTQSPSSLSASVGDRVTITCKSSQSVLYSSNQKNYLAWYQQKPGKVPKLLIYWASTRESGVPSRFSGSGSGTDFTLTISSLQPEDVATYYCHQYLYSWTFGQGTKLEIKRLEPKSSDKTHTCPPCPAPEAAGAPSVFLFPPKPKDTLMISRTPEVTCVVVDVSHEDPEVKFNWYVDGVEVHNAKTKPREEQYNSTYRVVSVLTVLHQDWLNGKAYACAVSNKALPAPIEKTISKAKGQPREPQVYTLPPSRDELTKNQVSLTCLVKGFYPSDIAVEWESNGQPENNYKTTPPVLDSDGSFFLYSKLTVDKSRWQQGNVFSCSVMHEALHNHYTQKSLSLSPG
notes: SMIP: scFv-hinge-Fc single chain
binding result [3]: binds
